# Experiment: soluble on expression in E. coli; label from the status in PepcDB or PDB records
row,Sequence,soluble on expression in E. coli
1,MGSDKIHHHHHHMITGFASSLYKKYEGSTFELLADTVFSALEMAGLDKNYVDGIYLTYLPGTFDGYANSHFFTNQVAQYLGIRPKFTQIFDYGGASALSMIHRAYKAIKAGEGETILCIVGGKATELRNKGVTVDAIDKAYPNVSLTPFDRLFRGLNDLNPVSDYALVANRHKYLFKSTDEQRALIAVRQRFNAMQNSKAMFKDPLTIEQVLKSPLVSYPLHLLEIVYPIDGFHVFVVSKRSSKSALTNIDILGYGEAHWPFMPTELDEIVYTPAVESSKGLLNGRIDAFELYDSFTITVMLQVEDIGLAEKGKGGSFFENHDTTFKGDVPINTGGGSLNTGQPAYMSGGVILEEALLQLNDMADGHQVKGTDVVFLNGIGGWNRSHSVSLVLGEKK,not soluble
2,MGSDKIHHHHHHMITPQDRLIKALNGQVIDRSPCICPGGMMNMATTEIMQRVGSHWPEAHKKPQDMARLALGVCHLTGMENLGVPFCMTVEAEAMGAKVNLGSLANEPRVAEYPLMKLEDWETLSGINPGEGRAGIVAEAVSYLTSSKTELPVIANLTGPISLASSLIEPMVFFKAMGKKPELVHEFLYFVTDNLIVFGRSMLQAGAQIINIADPGGTEEILGPRHFAEFALPYINRILNELQGEYQASMVHICGRLQSIFTEINQLATNAISIDSTTSISKLRSALREKVVVGNISTYLLQNAQPGRVKATGFNCLRKGITILSPACGISPATPLANLQAMVSAVHDFDYQNREVSSLG,not soluble
3,MGSDKIHHHHHHMITQINIENFKCFSKKNMPVGALTMLTGFNAAGKSTALQALLLISQMVSGRHGDVSAALNGELVRMGTPGDVLRSDGSKEIKIGIETVEQKIQWTLVPSINLNNSLDLKDIHWASPNGVGDLTNISCNTSFNGLTPNEAPSDLSNLANEISDLIFISAVRMGTQDVYPSPTEPSPIRANVGMRGDYAPWWYEQHLDYEIDQKRVHSSEKALTLRRQLNAWLDQLFPGAEANAQKLPNTDLIQLLFRNSKTDVWRKPANIGYGLTYAFPILVAGLLARPGQLLIIDSPEAHLHPLGQSNMGKFLAKIAASGVQVLVETHSDHVLNGARLAVKSRVIDSRDVGILFFNRPPQKDGDPEHIIAPSIDKEGNLSDWPLGFFDQAENDLAVLADWG,not soluble
4,MGSDKIHHHHHHMIVKAKFVKGFIRDVHPYGCRREVLNQIDYCKKAIGFRGPKKVLIVGASSGFGLATRISVAFGGPEAHTIGVSYETGATDRRIGTAGWYNNIFFKEFAKKKGLVAKNFIEDAFSNETKDKVIKYIKDEFGKIDLFVYSLAAPRRKDYKTGNVYTSRIKTILGDFEGPTIDVERDEITLKKVSSASIEEIEETRKVMGGEDWQEWCEELLYEDCFSDKATTIAYSYIGSPRTYKIYREGTIGIAKKDLEDKAKLINEKLNRVIGGRAFVSVNKALVTKASAYIPTFPLYAAILYKVMKEKNIHENCIMQIERMFSEKIYSNEKIQFDDKGRLRMDDLELRKDVQDEVDRIWSNITPENFKELSDYKGYKKEFMNLNGFDLDGVDYSKDLDIELLRKLEP,not soluble
5,MGSDKIHHHHHHMIVKDYRREFEALAKAYEKAGGDVSKFLDRRIASIIISGDKVIGLNGVEGVELTPYRIENGVQVDMRIKEGVVVEYPVHVCTGYLEKKGLQRVVFNIRLEKNAKAIFVAHCVFPWTEDFTHDALMNVELEEGAWMEYHDEHTHSETGSINLITRSIARVGERAVYRNTFTLVKTRIGTLRVFMDASLEKDAVGELYTKVKAVEDDDVEVKEILRLNGMGARGLAKTNAVAIDRAKVSVVNEVYGNAPHTRGHVECLEIAKGDGVDVRALPVLVVKNDSSELTHEASIGRVNAKQLETLMAKGLTEEEATEMIIKGILT,not soluble
6,MGSDKIHHHHHHMIVPQEIYHPLYEDKEKFIILITGGRGSGKSFNASTFIERLTFELTPVEKIVHQILYTRYTMVSAGMSIIPEMMEKIELDGTTKYFKTTKTDIVNKMTKSRIMFRGIKTSSGNQTAKLKSIQGITTFVCDEAEEWTNEEEFDKIMLSIRKKGIQNRIIIIMNPCDSNHFIYKKYIENTHKLVEIDGVQVQISTHPNVLHIHTTYLDNLENLSPEFLKEVEDMKVNNPEKYAHVVIGRWADVAEGAVFKKWGIVDEFPAWAKKVAIGQDFGYTHDPSASIRCGIVDNALYLDEIDYRTGLLSSDIIKSLRPWGLKVIADSADPRLIQEIHNGGVKIYAVEKGAGSVNAGLDKMQGMEMYITKRSYNLQREYRKYVWAKDKDGNYINEPEDHDNHGIDAVRYYVLGELLGKIQKPKDLTGIFTH,not soluble
7,MGSDKIHHHHHHMKAVNENLKEQFVKRNKLAICATLRELKKNDTSLMVHHSHGQFISKILDVVPDNNLFVFDLGGIERENSRALYAGALSFIAEPAGAKVEFNAEIAKTVNYDGLPAFSAQIPELLYLIQRRTYFRINTPLWPPLTCRGELPDDSVFTFTIKDLSLGGLSLYTDRDTTGLLTEGDIIKSVEMDLADHGFFCVDLQFVGQAMVKIVDNKGELKLTQRLSFKFPSLNAAQERDLQQVIFELEKLQNEKKKRFQEL,not soluble
8,MGSDKIHHHHHHMKDKSNSPLIKELKLANLLSFGSETTDIQLNSLNVVVGPNGSGKSNLIDAISLLQASPSDLAVPIRKGGGIRDWLWRGMELPTASMEVITPSAPHGNKDLRYYLAFTALKQRFELIDECLETKEPYTNHSEPYFYYRYQNGNPVINNIKDQKRMLKREDIDPEQSILSQRKDPDQYPEITWLGKQFAAIRIYREWNFGRKALLRQPQGADAPNDYLAEDCSNLGLVLNKLRTNYKVKKKVLDLLSQFYEGIDDFDVIVEGGTVQLFLQEGEFMIPATRLSDGTLRFLCLLAILCNPDPPPLICIEEPELGIHSDIIPVIGQLLKDASKMTQLIVTTHSEILVDELTDMPEAVLVCEKHEGMTRFRRLEKDLLKDWLERYSLGELWRKGEIGGTRW,not soluble
9,MGSDKIHHHHHHMKETVYFGTYTRRTSQGIYKADFDTETGQLSNLELFAAEPSPTYLAFDQHQHLYTVGSQDDKGGIAAYQTDGTVLNHVVEEGAPHCYVAVDEKRDLVYAANYHKGQVLVYKRQEDGSLLLSDMDQHSGQGPHENQASPHVHYTDLTPDHYLVTCDLGTDQVITYDLDQEGKLSKLYTYHSKPGAGSRHIIFHNHYKIAYLICELNSTIEVLIYDGVGEFERMQVISTLPEAYEGFNGTAAIHLSKDGKYLYASNRGHDSIAVYTILADGSLELLEIVPTHGQTPRDFDLTPDQKFLIVVHQDSDNATVFKRNCDNGRLAELSNDFHVPEAVCIRFAP,not soluble
10,MGSDKIHHHHHHMKFAVSSKGDQVSDTLKSKIQAYLLDFDMELDENEPEIVISVGGDGTLLYAFHRYSDRLDKTAFVGVHTGHLGFYADWVPHEIEKLVLAIAKTPYHTVEYPLLEVIVTYHENEREERYLALNECTIKSIEGSLVADVEIKGQLFETFRGDGLCLSTPSGSTAYNKALGGAIIHPSIRAIQLAEMASINNRVFRTVGSPLLLPSHHDCMIKPRNEVDFQVTIDHLTLLHKDVKSIRCQVASEKVRFARFRPFPFWKRVQDSFIGKGE,not soluble
11,MGSDKIHHHHHHMKFKTVGNPNGPKILLIHPMFATSECFVNLVEYLKEDYFVITPTLDGHDINENSIFLSVEDEGNKVLAYLKDNSIKELDFMLGTSLGAIIAFEIYKRNEIRINKVYLDGGPFFKFGALLQKVAAKKFCNICSEVRQNPQKAINKIERLFKGLGNEMCEVACHITEESIKNLAHACYSFTLPNLKPVEQKSVVFLYGTKEPARFCIFRLRKYKYSRIIKKNGFSHCGYLLSYPKEYAEMLKENTQ,not soluble
12,MGSDKIHHHHHHMKFLRSLAFLNLQKKFKNKFNINILDYIKPKPTKICFKDFENKYLTAKQKEVLFDIESNNYSKVIFSGGIASGKTFLASYLLVKKLIENKSFYEQDTNNFIIGNSIGLLMTNTVKQIEKICSLLGIDYEKKKSGQSFCKIAGLKLNIYGGKNRDAFSKIRGGNSAIIYVNEATVIHRETLLEVIKRLRKGKEIIIFDTNPESPAHYFKTDYIENTDVFKTYNFTTYDNPLNSADFIQTQEKLYRRFPAYRARVLYGEWILNESTLFNEMIFNQDYEFKSPIMYIDPAFSVGGDNTAICVLERTFEKFYAYIYQDQKPVSDSLMLASIQVLIENFNVNTVYIEERDSTKGDGILTKTILFLRNKSSHYFKVAPIKPLSNKFKRICALIPLFESRKIEFLKIISKNVISDIYSYKGDGKTKDDALDSLANAYLLLTLNYKEKLFHFGRFKYL,not soluble
13,MGSDKIHHHHHHMKFNTTIKRLQEAVNKVILAVPAKSLDARFDNINLTLENGMLTMFATDGELSITTNCDVASTDKGNIAIRARTLQDFLRSMYETDVTFDIERQSIGELGTIHIATDKGRYRIPCTFTTKPESQKRNFDLSIELQQNELQDMIHKTLFACSVDGMRPAMMGVLFEFDEEYITAVSTDGHRLVRCRKKPGVTVAEKQKIVVPARVLSIIQRMLTNEEVKMTIDSERRNVKFKTATMELESALIVEPYPNYEAVIPVENEKQLVTDRSQLHDSVKRVGRFSSIGDLKISAQDSQIKVMAENASEGESAQEELPCTFTGEEITIGFNAKFVEAALSHIETEQVSIEMSSPTTAVLFKPKYEERQDDLIILVMPVRINN,not soluble
14,MGSDKIHHHHHHMKIAQVCPRFYPHIGGVETHVYEIASRIAKKFDVEVLTTDPGGKLPKVEEIDGLTVRRFKSLAPSEAYYFSPELYDYLKKNSSDYDVVHAHNYHAFPALFAALTKGKNKLIFTPHYHGSGHSFFRNVLHKPYKIFGRKIFKRADAIVCVSNYEKNLVLKNFKVAEDRTYVIPNGINLDEFKDIEKIKRNKESWKKTILYVGRVEKYKGLDYVVKSLKHLPDNFTLEVVGKGSYKSKIVEMAKKLDVIDRIRFYQDLSRKELIDRYAKADVLVLLSKHEAYGIVVAEALAAKTPCIVANTSALSEWIDNKNVFGIDYPINVSELARLIERVSNVKAGDMKLLDWDDVNERLIRIYSAKI,not soluble
15,MGSDKIHHHHHHMKIAVLPGDGIGPEVVREALKVLEVVEKKTGKTFEKVFGHIGGDAIDRFGEPLPEETKKICLEADAIFLGSVGGPKWDDLPPEKRPEIGGLLALRKMLNLYANIRPIKVYRSLVHVSPLKEKVIGSGVDLVTVRELSYGVYYGQPRGLDEEKGFDTMIYDRKTVERIARTAFEIAKNRRKKVTSVDKANVLYSSMLWRKVVNEVAREYPDVELTHIYVDNAAMQLILKPSQFDVILTTNMFGDILSDESAALPGSLGLLPSASFGDKNLYEPAGGSAPDIAGKNIANPIAQILSLAMMLEHSFGMVEEARKIERAVELVIEEGYRTRDIAEDPEKAVSTSQMGDLICKKLEEIW,soluble
16,MGSDKIHHHHHHMKIAVVGAGLTGLKTAKELAEHAKVVVFEPDDVGGLVATFREFSIEKFYHHCFRDDAFLLEEIKRCGLKSKLVWKIAKTGFAANGKIYPLNTPFEILRYPLLTFGEKIRLARFTLKSRKLNYEDFDDVGVSEGIREELGEGLLERFFMPLLRSKFGENAEKVSYAWLLGRVAIRSNRKYSGEEIGYIRHGFQQLVDKMAEGLEIRRERARIRKNARWDVNGEDFDAVVYTAPLSELGELAEKLGIPEVRYQSSVCALIGAEETLTENIYWTNIADKMSFGAVIEHTNFMPFEDYGIHLMYLAAYSTPDGWLFNLSDKEIEKLFLSDLRKLGFKTESVRFVRVFKAKYSGPIYEKGYRRKITPYRVAEGFYVAGMTSRPNYPERSMNGSIRAGKEVAEQVKEDLL,not soluble
17,MGSDKIHHHHHHMKIDELIALAAEQPTRISRRSGVSRSTLKRVGDGTSEPTLSTLREVALALGLDIKVAAHHACDPFAAAAARTLIDASVPENPHNQEILAWLHRFERWNINDPLTLVSEAGTLQGITHRQDAQFVKLNPRGIAELPELFQQHKTKWALSGAAAATVIMGQIVLGNSIVWHEPAHDLDVSALGTIVDVAEDADLILLPATVTELVGSYTQDRLNFVAPVQLVIDLHSLHMFEEADYLTSGWR,not soluble

# From the DeepSol protein solubility set
